Data taken from the supplement of paper PMC9732359.
± gives the uncertainty stated by the source.

Assay: protein stability index of a GFP-peptide fusion (yeast GPS) (PSI 1-4); higher = more stable; sorted into four equal gates, so the index is relative within each strain
Outline: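 Tiled 17-residue yeast protein peptides were fused downstream of GFP in a plasmid that also expresses Cherry, and the pooled library was carried in yeast. Mid-log cultures in leucine-free medium were sorted into four equal gates by GFP/Cherry fluorescence ratio, and plasmids from each gate were PCR-amplified and Illumina-sequenced, with reads assigned to strains by barcodes. The protein stability index for each peptide was each gate's read frequency times its gate number, summed.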

Sequence | protein stability index (doa10∆) | protein stability index (pdr5∆) | protein stability index (san1∆) | protein stability index (ubr1∆)
LAKERQKLWLLECQLFP [SSN8] | 2.06 ± 0.057 | 1.85 ± 0.052 | 1.47 ± 0.1 | 2.05 ± 0.047
LAKKWFLQHPDEEYPVK [PRP8] | 3.23 ± 0.14 | 3.15 ± 0.15 | 3.26 ± 0.094 | 2.89 ± 0.16
LAKPVFHVGFIAKIKKV [RPO21] | 1.21 ± 0.053 | 2.15 ± 0.067 | 1.78 ± 0.073 | 2.02 ± 0.06
LALALGILYMGQGEQVD [RPN1] | 1.26 ± 0.16 | 1.5 ± 0.13 | 1.45 ± 0.13 | 1.23 ± 0.11
LALGSHNKLIQFGNACI [SSN2] | 2.13 ± 0.13 | 1.6 ± 0.087 | 2.2 ± 0.13 | 1.28 ± 0.089
LANEERLSNEMHALKNR [RGR1] | 3.32 ± 0.12 | 3.42 ± 0.07 | 3.4 ± 0.059 | 3.66 ± 0.13
LANRSKENFILDSLMKT [YJL039C/NUP192] | 2.47 ± 0.095 | 2.64 ± 0.12 | 3.03 ± 0.12 | 2.69 ± 0.069
LARRTDAPFNKVVLKAL [RPL18A] | 1.22 ± 0.057 | 1.28 ± 0.048 | 1.18 ± 0.12 | 1.45 ± 0.068
LASKIKQYERLRFYKDT [RRI1] | 2.63 ± 0.068 | 2.52 ± 0.062 | 1.97 ± 0.077 | 2.19 ± 0.08
LASRNKWDDLNEQLTLL [RPN5] | 2.99 ± 0.09 | 3.4 ± 0.072 | 3.26 ± 0.056 | 3.12 ± 0.047
LAVEDKPSPIDSGIGSN [CSL4] | 3.02 ± 0.069 | 3.27 ± 0.062 | 3.06 ± 0.052 | 3.08 ± 0.044
LAVFLFDIYNRDRKLIT [YJL039C/NUP192] | 1.98 ± 0.2 | 1.46 ± 0.13 | – | –
LAVKVHGGSRYATKDGV [QCR2] | 1.62 ± 0.11 | 1.18 ± 0.1 | 1.17 ± 0.26 | 1.07 ± 0.089
LAVSTILGKNFDSVIVE [SMC1] | 2.86 ± 0.066 | 2.59 ± 0.064 | 2.44 ± 0.056 | 2.45 ± 0.047
LCHPKKEKYGLAVSTIL [SMC1] | 2.29 ± 0.063 | 2.31 ± 0.063 | 2.23 ± 0.091 | 2.15 ± 0.048
LCLMTWKEVMFDPSKDV [CDC53] | 2.52 ± 0.079 | 2.72 ± 0.068 | 2.83 ± 0.097 | 3.09 ± 0.073
LCQKSPVMADLNGGLQF [FAS2] | 2.79 ± 0.11 | 2.65 ± 0.17 | 2.94 ± 0.14 | 2.53 ± 0.2
LCRNPLTSGLLYSYLIK [YJL039C/NUP192] | 2.07 ± 0.064 | 1.84 ± 0.06 | 1.67 ± 0.088 | 1.53 ± 0.036
LDALVDCENFFNYVQEC [YJL039C/NUP192] | 3.37 ± 0.12 | 3.43 ± 0.084 | 3.44 ± 0.079 | 3.41 ± 0.065
LDDEKIFSQTTNSTYNP [YJL039C/NUP192] | 2.78 ± 0.061 | 2.85 ± 0.053 | 2.91 ± 0.062 | 3.08 ± 0.045

Sequence | protein stability index (doa10∆) | protein stability index (pdr5∆) | protein stability index (san1∆) | protein stability index (ubr1∆)
LDDLQVILAKNENETRD [PGD1] | 3.27 ± 0.099 | 3.05 ± 0.08 | 2.93 ± 0.14 | 3.38 ± 0.078
LDEDDTNDGIERYSDKY [RPC31] | 3.32 ± 0.14 | 3.4 ± 0.12 | 3.22 ± 0.11 | 3.26 ± 0.074
LDERGHEKIEDEDEDND [RPN4] | 3.37 ± 0.25 | 3.44 ± 0.15 | 3.48 ± 0.13 | 3.32 ± 0.17
LDGELDFDDFLKLGLVE [RET1] | 3.36 ± 0.16 | 3.08 ± 0.12 | 2.81 ± 0.13 | 2.56 ± 0.17
LDGVSYLHQNWVLHRDL [SSN3] | 2.34 ± 0.11 | 2.11 ± 0.081 | 2.77 ± 0.19 | 2.24 ± 0.087
LDKDRKALIQRKGGKLE [RPL26A] | 2.48 ± 0.18 | 3.5 ± 0.21 | 3.12 ± 0.09 | 2.97 ± 0.14
LDKLNCAINSKSRGSDL [RRP6] | 2.81 ± 0.049 | 2.93 ± 0.042 | 2.79 ± 0.042 | 2.94 ± 0.032
LDLAGPLLAQLFKTLFK [RPB2] | 2.63 ± 0.038 | 1.25 ± 0.037 | 1.25 ± 0.078 | 1.18 ± 0.031
LDLSRSNGVLNVDNQTS [RPS17A] | – | 3.09 ± 0.22 | – | –
LDNMTYSSVAGTVSRVN [RRP4] | 2.44 ± 0.049 | 2.52 ± 0.05 | 2.23 ± 0.051 | 2.21 ± 0.036
LDPLARVSKDKKSGSLT [FAS2] | 3.31 ± 0.1 | 3.2 ± 0.096 | 3.22 ± 0.084 | 3.14 ± 0.16
LDPLTKDPVDFVRQAAM [RPN2] | 3.39 ± 0.12 | 3.53 ± 0.14 | 3.17 ± 0.2 | 2.85 ± 0.25
LDPYERAIYSYLSGAIP [YDL116W/NUP84] | 2.83 ± 0.12 | 3.11 ± 0.082 | 3.13 ± 0.098 | 3.11 ± 0.13
LDSGDDQPQSSEAKRTK [BRR2] | 3.31 ± 0.057 | 3.26 ± 0.057 | 3.25 ± 0.048 | 3.25 ± 0.043
LDSTGFDSTAFNATVDE [MED2] | 3.08 ± 0.048 | 3.27 ± 0.053 | 3.06 ± 0.053 | 3.07 ± 0.038
LDTQLNDLRVSLNEKNA [SMC1] | 3.03 ± 0.11 | 3.13 ± 0.082 | 3.41 ± 0.064 | 3.14 ± 0.09
LDVTKEAQANLLTAKHG [RPO21] | 3.23 ± 0.17 | 3.46 ± 0.18 | 2.8 ± 0.19 | 3.18 ± 0.19
LDYQETYVEELFPIVKK [YJL039C/NUP192] | 2.81 ± 0.071 | 3.07 ± 0.1 | 2.87 ± 0.1 | 2.75 ± 0.062
LDYQIGNSESKVEKGVN [LIN1] | 3.12 ± 0.12 | 3.4 ± 0.18 | 2.92 ± 0.15 | 3.38 ± 0.13
LEAARSEKQNDEEAAGA [PRP8] | 2.37 ± 0.097 | 2.04 ± 0.078 | 2.61 ± 0.2 | 2.32 ± 0.078
